Numbering of substitutions follows the chain as printed.
How the values were obtained:
[1] = molecular target: T1, human FLT3 (hFLT3) expressed on cells (human, UniProt P36888 27-993); assay: cell-based or functional assay
T1 sequence (looked up): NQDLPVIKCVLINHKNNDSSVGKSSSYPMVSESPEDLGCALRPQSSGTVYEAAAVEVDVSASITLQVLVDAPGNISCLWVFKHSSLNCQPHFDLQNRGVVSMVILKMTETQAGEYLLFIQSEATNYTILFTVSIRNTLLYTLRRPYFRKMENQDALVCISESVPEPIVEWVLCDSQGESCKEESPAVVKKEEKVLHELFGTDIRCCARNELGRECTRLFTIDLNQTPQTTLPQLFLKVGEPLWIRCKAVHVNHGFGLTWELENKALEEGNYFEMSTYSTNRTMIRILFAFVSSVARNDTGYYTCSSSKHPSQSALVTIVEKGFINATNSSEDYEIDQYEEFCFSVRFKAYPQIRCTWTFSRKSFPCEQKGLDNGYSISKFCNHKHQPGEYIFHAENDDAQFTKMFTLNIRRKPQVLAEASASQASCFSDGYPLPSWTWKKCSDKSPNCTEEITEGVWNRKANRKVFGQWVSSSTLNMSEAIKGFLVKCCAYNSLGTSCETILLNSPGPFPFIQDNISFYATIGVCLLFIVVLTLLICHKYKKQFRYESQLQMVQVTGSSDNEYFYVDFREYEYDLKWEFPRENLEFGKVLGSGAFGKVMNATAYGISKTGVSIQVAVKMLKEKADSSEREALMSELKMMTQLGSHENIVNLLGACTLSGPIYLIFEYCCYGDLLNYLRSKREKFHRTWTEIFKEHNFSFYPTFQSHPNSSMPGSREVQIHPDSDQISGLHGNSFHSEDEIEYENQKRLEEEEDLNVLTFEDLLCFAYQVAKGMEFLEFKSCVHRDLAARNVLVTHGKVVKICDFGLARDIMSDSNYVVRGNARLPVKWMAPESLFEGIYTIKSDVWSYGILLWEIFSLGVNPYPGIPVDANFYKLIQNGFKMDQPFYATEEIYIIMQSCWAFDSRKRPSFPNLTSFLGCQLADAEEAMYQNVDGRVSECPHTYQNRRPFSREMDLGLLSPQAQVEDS

[2] = molecular target: T1, human FLT3 (hFLT3) expressed on cells; assay: flow cytometry on RMA-hFLT3 cells, anti-human IgG secondary antibody, fold over background (FOB)
Text: (§1) Isogenic cell lines ectopically expressing human and cynomolgus monkey FLT3 were used to assess cross-reactivity between human and cynomolgus monkey FLT3. […] cancer cell line RMA expressing hFLT3 or cFLT3 was used to assess tumor antigen binding of FLT3-targeting TriNKET and parental mAb. The human AML cell lines MOLM-13 and MV4-11 and the human ALL cell line REH were used to assess binding ability of the TriNKET or parental mAb. In particular, MOLM-13 cells and MV4-11 cells, which expressed FLT3-T227M and FLT3-ITD, respectively, were used to assess the ability of the FLT3-targeting TriNKET and parental mAb to bind mutant FLT3.
(§2) The cells were then incubated with a fluorophore conjugated anti-human IgG secondary antibody and were analyzed by flow cytometry. The mean fluorescence intensity (MFI) values were normalized to secondary antibody only controls to obtain fold over background (FOB) values.

[3] = molecular target: T2, cynomolgus monkey FLT3 (cFLT3) expressed on RMA cells (cynomolgus monkey, UniProt A0A2K5VQ48 27-993); assay: flow cytometry on RMA-cFLT3 cells, anti-human IgG secondary antibody, fold over background (FOB)
T2 construct: whole, on cells; also called RMA-cFLT3; cynomolgus FLT3
T2 sequence: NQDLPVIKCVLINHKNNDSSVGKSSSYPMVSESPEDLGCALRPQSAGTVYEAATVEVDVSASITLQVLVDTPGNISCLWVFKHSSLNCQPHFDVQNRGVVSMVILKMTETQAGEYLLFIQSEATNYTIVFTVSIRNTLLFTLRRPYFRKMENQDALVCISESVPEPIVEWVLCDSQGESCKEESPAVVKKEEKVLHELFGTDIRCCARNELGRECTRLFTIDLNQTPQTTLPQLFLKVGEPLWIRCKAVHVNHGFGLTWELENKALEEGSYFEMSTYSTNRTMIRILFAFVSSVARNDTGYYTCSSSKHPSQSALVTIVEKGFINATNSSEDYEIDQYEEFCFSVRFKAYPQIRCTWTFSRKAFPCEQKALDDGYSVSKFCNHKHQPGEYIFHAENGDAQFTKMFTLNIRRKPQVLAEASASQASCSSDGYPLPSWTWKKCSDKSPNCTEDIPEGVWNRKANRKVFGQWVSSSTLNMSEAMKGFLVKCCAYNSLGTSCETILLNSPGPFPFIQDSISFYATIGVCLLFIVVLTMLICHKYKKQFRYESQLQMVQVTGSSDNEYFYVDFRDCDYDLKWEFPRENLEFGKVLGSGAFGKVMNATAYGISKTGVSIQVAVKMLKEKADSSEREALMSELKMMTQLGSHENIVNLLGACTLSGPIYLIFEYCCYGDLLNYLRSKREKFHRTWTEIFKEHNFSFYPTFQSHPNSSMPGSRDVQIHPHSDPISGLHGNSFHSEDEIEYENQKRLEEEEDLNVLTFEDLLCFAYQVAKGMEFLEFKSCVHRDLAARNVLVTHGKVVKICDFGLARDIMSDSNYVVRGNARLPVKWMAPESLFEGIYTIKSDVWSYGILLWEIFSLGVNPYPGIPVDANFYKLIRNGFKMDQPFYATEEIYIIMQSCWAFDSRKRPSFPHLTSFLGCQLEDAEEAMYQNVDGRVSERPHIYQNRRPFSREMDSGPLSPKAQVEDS
Text: as §1, §2

[4] = molecular target: T3, FLT3-T227M expressed on MOLM-13 cells (human, UniProt P36888 27-993); assay: flow cytometry on MOLM-13 cells (FLT3-T227M), anti-human IgG secondary antibody, gMFI
T3 construct: whole, on cells; also called hFLT3-T227M; FLT3 with T227M mutation
T3 sequence (looked up): T1 sequence (looked up) with T201M
Text: as §1, §2

[5] = molecular target: T1, human FLT3 (hFLT3) expressed on cells; assay: flow cytometry on REH cells, anti-human IgG secondary antibody, fold over background (FOB)
Text: as §1, §2

[6] = molecular target: T1, human FLT3 (hFLT3) expressed on cells; assay: flow cytometry, purified mAb on RMA-hFLT3 cells
hFLT3-His fusion protein = molecular target: T4, hFLT3-His fusion protein (human, UniProt P36888 27-541, limits assumed); assay: SPR, purified murine subclone mAb, hFLT3-His
T4 construct: Soluble recombinant antigen used for immunisation, ELISA, SPR and BLI binning; also called recombinant hFLT3 protein; not shown: His tag
T4 sequence (looked up): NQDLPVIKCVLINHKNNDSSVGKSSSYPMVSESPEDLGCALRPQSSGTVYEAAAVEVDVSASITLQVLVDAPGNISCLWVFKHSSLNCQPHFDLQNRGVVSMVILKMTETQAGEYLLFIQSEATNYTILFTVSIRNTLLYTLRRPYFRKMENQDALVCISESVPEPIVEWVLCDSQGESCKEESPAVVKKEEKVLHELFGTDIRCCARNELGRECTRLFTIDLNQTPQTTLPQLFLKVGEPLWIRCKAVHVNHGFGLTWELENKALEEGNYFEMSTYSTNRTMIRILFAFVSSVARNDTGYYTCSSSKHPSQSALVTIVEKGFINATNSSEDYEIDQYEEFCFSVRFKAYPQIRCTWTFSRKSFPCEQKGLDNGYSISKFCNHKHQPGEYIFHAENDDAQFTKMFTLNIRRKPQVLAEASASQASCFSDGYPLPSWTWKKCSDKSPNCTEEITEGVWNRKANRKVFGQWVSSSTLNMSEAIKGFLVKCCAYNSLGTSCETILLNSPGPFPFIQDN

[7] = molecular target: T2, cynomolgus monkey FLT3 (cFLT3) …; assay: flow cytometry, purified mAb on RMA-cFLT3 cells
[8] = molecular target: T1, human FLT3 (hFLT3) expressed on cells; assay: flow cytometry, purified mAb on SEM cells

B1: FLT3-ligand (ligand, human, UniProt P49771 27-185, looked up)
chain: TQDCSFQHSPISSDFAVKIRELSDYLLQDYPVTVASNLQDEELCGGLWRLVLAQRWMERLKTVAGSKMQGLLERVNTEIHFVTKCAFQPPPSCLRFVQTNISRLLQETSEQLVALKPWITRQNFSRCLELQCQPDSSTLPPPWSPRPLEATAPTAPQPP
pFLT3 levels (pFLT3 ELISA, EOL-1 cells) [1]: 3 fold

B2: GB102 monoclonal antibody in the human IgG1 format (antibody, V domains shown)
VH: QVQLVQSGAEVKKPGASVKVSCKASGYTFTRYVMHWVRQAPGQRLEWMGFINPYNDDTKYNEKFKGRVTITRDTSASTAYMELSSLRSEDTAVYYCARWRQLGSLDSWGQGTTVTVSS
VL: DIVMTQSPDSLAVSLGERATINCRASESVDTYGSSFVHWYQQKPGQPPKLLIYLASNLESGVPDRFSGSGSGTDFTLTISSLQAEDVAVYYCQQNNEEPWTFGGGTKVEIK
notes: also called parental mAb
EC50 (read off the curve) [2]: ~0.5 nM | EC50 (read off the curve) [3]: ~0.6 nM | EC50 (read off the curve) [4]: ~2 nM | EC50 (read off the curve) [5]: ~1 nM

B3: 15A11.C8 (antibody, V domains shown)
VH: EVQLQESGGGLVKTGGSRKLSCAASGFTFSDYGMHWVRHTPEKGLEWVVYISSGGNTIFYTDTVKGRFTISRDNAKNTLFLQMTSLRSEDTAVYFCVRQGYYYAMDYWGQGASVTVSS
VL: DIQMTQTTSSLSASLGDRVTIRCRASQDITNYLNWYQQKPDGAVKLLISYTSILQSGVPSRFSGSGSGTDYSLTISNLEQGDVATYFCQQGSSLPWTFGGGTKLEIK
notes: Purified murine mAb from a hybridoma subclone
EC50 [6]: 0.41 nM | Max MFI [6]: 1410 MFI | Kd (hFLT3-His fusion protein): 10.5 nM | koff (hFLT3-His fusion protein): 0.00048 s⁻¹ | kon (hFLT3-His fusion protein): 45000 M⁻¹ s⁻¹ | EC50 [7]: 0.82 nM | Max MFI [7]: 6510 MFI | EC50 [8]: ~1.13 nM | Max MFI [8]: 3860 MFI
